Data on one molecule can be found in paper PMC8943206 (2022).

The Kd is the free concentration of one partner at which half of the binding sites on the other are occupied at equilibrium, for simple one-to-one binding.

For this assay, the target named is T1, cGAS-His (human, UniProt Q8N884 1-522).
T1 chain: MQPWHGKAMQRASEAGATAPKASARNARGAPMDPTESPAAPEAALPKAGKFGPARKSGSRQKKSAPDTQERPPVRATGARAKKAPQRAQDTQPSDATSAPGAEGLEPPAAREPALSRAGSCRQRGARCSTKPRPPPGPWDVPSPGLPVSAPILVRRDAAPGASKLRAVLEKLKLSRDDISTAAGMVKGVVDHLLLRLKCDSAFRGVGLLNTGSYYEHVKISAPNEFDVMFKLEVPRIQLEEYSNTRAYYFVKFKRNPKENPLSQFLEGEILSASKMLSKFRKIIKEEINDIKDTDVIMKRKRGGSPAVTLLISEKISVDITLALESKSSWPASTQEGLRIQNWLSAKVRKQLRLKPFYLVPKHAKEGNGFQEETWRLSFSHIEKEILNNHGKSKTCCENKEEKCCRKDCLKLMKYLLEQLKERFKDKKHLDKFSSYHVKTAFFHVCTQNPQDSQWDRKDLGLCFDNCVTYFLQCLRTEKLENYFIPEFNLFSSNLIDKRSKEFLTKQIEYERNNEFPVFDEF
Nature of the assay: SPR. For orientation: Surface plasmon resonance follows binding to a sensor surface in real time, without labels.

B1: GST-PCBP2 (natural protein)
chain: MDTGVIEGGLNVTLTIRLLMHGKEVGSIIGKKGESVKKMREESGARINISEGNCPERIITLAGPTNAIFKAFAMIIDKLEEDISSSMTNSTAASRPPVTLRLVVPASQCGSLIGKGGCKIKEIRESTGAQVQVAGDMLPNSTERAITIAGIPQSIIECVKQICVVMLETLSQSPPKGVTIPYRPKPSSSPVIFAGGQDRYSTGSDSASFPHTTPSMCLNPDLEGPPLEAYTIQGQYAIPQPDLTKLHQLAMQQSHFPMTHGNTGFSGIESSSPEVKGYWGLDASAQTTSHELTIPNDLIGCIIGRQGAKINEIRQMSGAQIKIANPVEGSTDRQVTITGSAASISLAQYLINVRLSSETGGMGSS
For the molecule B1, the Kd came out at 470 nM.
